From patent publication US20080306212A1 (Biogen, published 2008) come the findings set out here.

A value given as a limit tells only on which side of the number the result lay.

B1: 1 × 20 kDa PEG-NBN104 (CHO) (ligand)
chain: AAGARGCRLRSQLVPVRALGLGHRSDELVRFRFCSGSCRRARSPHDLSLASLLGAGALRPPPGSRPVSQPCCRPTRYEAVSFMDVNSTWRTVDRLSATACGCLG
modifications: one 20 kDa PEG on the amino-terminal amino acid of one chain (Table 8: 1); glycosylated at amino acid 95 of each chain (95, 95)
B2: 2 × 20 kDa PEG-NBN104 (CHO) (ligand)
chain: AAGARGCRLRSQLVPVRALGLGHRSDELVRFRFCSGSCRRARSPHDLSLASLLGAGALRPPPGSRPVSQPCCRPTRYEAVSFMDVNSTWRTVDRLSATACGCLG
modifications: 20 kDa PEG on the amino-terminal amino acid of each chain (Table 8: 1, 1); glycosylated at amino acid 95 of each chain (95, 95)
B3: NBN104 (CHO) (ligand)
chain: AAGARGCRLRSQLVPVRALGLGHRSDELVRFRFCSGSCRRARSPHDLSLASLLGAGALRPPPGSRPVSQPCCRPTRYEAVSFMDVNSTWRTVDRLSATACGCLG
modifications: glycosylated at amino acid 95 of each chain (Table 8: 95, 95; numbering of SEQ ID NO:1)
B4: 2 × 10 kDa PEG-NBN (ligand)
chain: AGTRSSRARATDARGCRLRSQLVPVSALGLGHSSDELIRFRFCSGSCRRARSPHDLSLASLLGAGALRSPPGSRPISQPCCRPTRYEAVSFMDVNSTWRTVDHLSATACGCLG
modifications: 10 kDa PEG on the amino-terminal amino acid of each chain (Table 8: 1, 1)
B5: 2 × 5 kDa PEG-NBN (ligand)
chain: AGTRSSRARATDARGCRLRSQLVPVSALGLGHSSDELIRFRFCSGSCRRARSPHDLSLASLLGAGALRSPPGSRPISQPCCRPTRYEAVSFMDVNSTWRTVDHLSATACGCLG
modifications: 5 kDa PEG on the amino-terminal amino acid of each chain (Table 8: PEGylated amino acids 1, 1)
B6: 1 × 20 kDa Branched PEG-NBN (ligand)
chain: AGTRSSRARATDARGCRLRSQLVPVSALGLGHSSDELIRFRFCSGSCRRARSPHDLSLASLLGAGALRSPPGSRPISQPCCRPTRYEAVSFMDVNSTWRTVDHLSATACGCLG
modifications: one 20 kDa branched PEG on the amino-terminal amino acid of one of the two chains (Table 8: 1)
B7: 2 × 20 kDa PEG-NBN (ligand)
chain: AGTRSSRARATDARGCRLRSQLVPVSALGLGHSSDELIRFRFCSGSCRRARSPHDLSLASLLGAGALRSPPGSRPISQPCCRPTRYEAVSFMDVNSTWRTVDHLSATACGCLG
modifications: 20 kDa PEG on the amino-terminal amino acid of each chain (Table 8: 1, 1)
B8: wild-type rat neublastin NBN113 (E. coli derived) (ligand)
chain: AGTRSSRARATDARGCRLRSQLVPVSALGLGHSSDELIRFRFCSGSCRRARSPHDLSLASLLGAGALRSPPGSRPISQPCCRPTRYEAVSFMDVNSTWRTVDHLSATACGCLG
B9: 3 × 10 kDa PEG-WT/N95K-NBN106 (ligand)
chain 1: ARATDARGCRLRSQLVPVSALGLGHSSDELIRFRFCSGSCRRARSPHDLSLASLLGAGALRSPPGSRPISQPCCRPTRYEAVSFMDVNSTWRTVDHLSATACGCLG
chain 2: ARATDARGCRLRSQLVPVSALGLGHSSDELIRFRFCSGSCRRARSPHDLSLASLLGAGALRSPPGSRPISQPCCRPTRYEAVSFMDVKSTWRTVDHLSATACGCLG
modifications: 10 kDa PEG on the amino terminus and on Lys95 (Table 8, for the dimer: 1, 1, 95); 10 kDa PEG on the amino terminus (Table 8, for the dimer: 1, 1, 95)
B10: 4 × 10 kDa PEG NBN106-N95K (ligand)
chain: ARATDARGCRLRSQLVPVSALGLGHSSDELIRFRFCSGSCRRARSPHDLSLASLLGAGALRSPPGSRPISQPCCRPTRYEAVSFMDVKSTWRTVDHLSATACGCLG
modifications: 10 kDa PEG on the amino terminus and on Lys95 of each chain (Table 8: 1, 1, 95, 95)
B11: 4 × 5 kDa PEG NBN106-N95K (ligand)
chain: ARATDARGCRLRSQLVPVSALGLGHSSDELIRFRFCSGSCRRARSPHDLSLASLLGAGALRSPPGSRPISQPCCRPTRYEAVSFMDVKSTWRTVDHLSATACGCLG
modifications: 5 kDa PEG on the amino terminus and on Lys95 of each chain (Table 8: 1, 1, 95, 95)
B12: 3(,4) × 10 kDa PEG NBN106-N95K (ligand)
chain: ARATDARGCRLRSQLVPVSALGLGHSSDELIRFRFCSGSCRRARSPHDLSLASLLGAGALRSPPGSRPISQPCCRPTRYEAVSFMDVKSTWRTVDHLSATACGCLG
modifications: 10 kDa SPA-PEG at the amino termini and Lys95, average 3.3 PEG moieties per dimer (Table 8: 1, 1, 95 (,95)); mixture of 2, 3 and 4 PEG adducts
B13: 3 × 10 kDa PEG NBN106-N95K (ligand)
chain: ARATDARGCRLRSQLVPVSALGLGHSSDELIRFRFCSGSCRRARSPHDLSLASLLGAGALRSPPGSRPISQPCCRPTRYEAVSFMDVKSTWRTVDHLSATACGCLG
modifications: three 10 kDa PEG per dimer: both amino termini and one Lys95 (Table 8: 1, 1, 95)

T1 sequence (P35546 29-1115 limits assumed): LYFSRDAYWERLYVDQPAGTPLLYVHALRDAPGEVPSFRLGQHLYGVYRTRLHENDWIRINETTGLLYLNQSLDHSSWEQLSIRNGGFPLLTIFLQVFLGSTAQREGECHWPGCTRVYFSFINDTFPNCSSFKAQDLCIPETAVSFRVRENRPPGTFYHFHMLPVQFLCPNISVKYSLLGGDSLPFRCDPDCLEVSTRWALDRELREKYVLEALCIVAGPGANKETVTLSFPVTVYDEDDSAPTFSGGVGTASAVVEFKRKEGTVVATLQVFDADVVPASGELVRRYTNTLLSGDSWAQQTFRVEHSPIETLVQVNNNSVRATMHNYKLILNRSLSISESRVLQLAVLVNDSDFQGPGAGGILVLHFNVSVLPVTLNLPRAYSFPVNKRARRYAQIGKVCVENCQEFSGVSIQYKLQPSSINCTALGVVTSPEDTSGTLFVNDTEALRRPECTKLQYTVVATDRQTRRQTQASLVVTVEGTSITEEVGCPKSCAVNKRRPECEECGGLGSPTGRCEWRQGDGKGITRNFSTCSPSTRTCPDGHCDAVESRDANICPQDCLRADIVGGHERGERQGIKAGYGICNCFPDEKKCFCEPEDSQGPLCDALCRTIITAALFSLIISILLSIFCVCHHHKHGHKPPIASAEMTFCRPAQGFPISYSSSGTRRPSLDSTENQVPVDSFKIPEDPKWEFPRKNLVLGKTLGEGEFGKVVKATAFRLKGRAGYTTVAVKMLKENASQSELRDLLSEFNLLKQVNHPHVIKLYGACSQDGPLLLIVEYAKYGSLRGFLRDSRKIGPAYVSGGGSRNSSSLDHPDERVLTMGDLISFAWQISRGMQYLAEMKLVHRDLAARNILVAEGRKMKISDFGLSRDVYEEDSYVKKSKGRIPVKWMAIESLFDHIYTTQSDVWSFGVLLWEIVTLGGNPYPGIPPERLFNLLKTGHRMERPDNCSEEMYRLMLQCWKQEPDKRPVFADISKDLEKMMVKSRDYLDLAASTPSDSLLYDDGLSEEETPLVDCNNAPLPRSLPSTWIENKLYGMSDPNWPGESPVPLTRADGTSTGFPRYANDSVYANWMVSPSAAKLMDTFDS
c-Ret (RET receptor tyrosine kinase) on NB41A3-mRL3 cells (UniProt P35546), sequence (P35546 29-1115 limits assumed): as above

The first assay concerns the target c-Ret (RET receptor tyrosine kinase) on NB41A3-mRL3 cells (UniProt P35546). Kind of assay: cell-based or functional assay.
On to B1, for which the KIRA:~ EC50 was determined as 0.3 nM and the KIRA:~ Max Efficacy vs WT worked out at 110%.
For B2, the KIRA:~ EC50 was 1 nM and the KIRA:~ Max Efficacy vs WT is 105%.
For B3 the same measures were 0.7 nM and 90%.

Another assay addresses T1, c-Ret (RET receptor tyrosine kinase) on NB41A3-mRL3 cells (UniProt P35546 29-1115, limits assumed). As to the kind of experiment: cell-based or functional assay.
In the case of B4, the “KIRA:~ EC50” value is ~0.2 nM and the “KIRA:~ Max Efficacy vs WT” value was ~72%.
In the case of B5, the “KIRA:~ EC50” value is ~0.2 nM and the “KIRA:~ Max Efficacy vs WT” value was ~105%.
As to B6, the “KIRA:~ EC50” value is ~0.2 nM and the “KIRA:~ Max Efficacy vs WT” value is ~83%.
The corresponding values for B7 are ~0.6 nM and ~80%.
B8: the “KIRA:~ Max Efficacy vs WT” value was ~100%.
Take B9: the “KIRA:~ EC50” value is ~0.7 nM and the “KIRA:~ Max Efficacy vs WT” value is ~115%.
For B10 the same measures were ~11 nM and > 80%.
With B11, the “KIRA:~ EC50” value was ~1 nM and the “KIRA:~ Max Efficacy vs WT” value is ~80%.
Turning to B12, the “KIRA:~ EC50” value was ~1.6 nM and the “KIRA:~ Max Efficacy vs WT” value was ~90%.
For the molecule B13, the “KIRA:~ EC50” value is ~0.8 nM and the “KIRA:~ Max Efficacy vs WT” value was ~100%.

A further assay has as its target T1, c-Ret (RET receptor tyrosine kinase) on …. Kind of assay: cell-based or functional assay. The source holds these as a separate data set.
B10: the “potency in the KIRA ELISA relative to wild-type NBN113” value was ~10 fold less potent.
